Consider two proteins from publication PMC11452484 (Nature Communications, 2024).

This data set deals with the molecule itself. As to the kind of experiment: cryo-EM structure.

B1: G. sulfurreducens SPARSA complex (short pAgo/Sir2-APAZ heterodimer) (complex)
chain 1: not shown
chain 2: MDVLTDNEFYQHYLQNSQHMMWFLGAGTSRSAGLPTASDIIWDLKHRYYCLHENQDYQKHDINNHAIKSKIQSYMDSKGFPLQWSPEEYSFYFELVFRDDYEAQRKYLLEALASRKVSLNIGHRVLAALLEMNQTKVVFTTNFDDVIETAFSDISGKHLSVYHLEGSYAALSALNTEAFPIYAKIHGDFRYQKIKNLTPDLQTNDREIHKCFLAAAIRFGLVVSGYSGRDENVMTMLRAAIDQNNAFPHGLYWTVPSISKSEPAVQDLITYAQGKGVRAYLVETGTFDEMLSKIWRQVKDKPAAIDAKVRTARVCPVSIPLPGPGKSFPALRTNALPVVTQSIRCGVVTLASPITFSELKERISQKSPKALLTYTEKVLFLGGEPEIRKIFSNDEINSIGQYYIDEIAQSVAASTFLKSFVEEAILTALLREKPILHRVRHRTHYAVIPNASAKDDRFLDLRKAVGFKGDLGYITGNVTNAKELSWAEAVSIRLEERGGKLWIMLKPEIWIKPLDRREEATDFIRSRRRYRFNQCSYQILDAWIKILFGSIGGGGTVNISCFPDAEFKAEFEIGTRTAFSLGVGYGR
One may read the stoichiometry N as a count of units in the complex or per binding partner. Take B1: the “stoichiometry N” value came to 4.

B2: Geobacter sulfurreducens Sir2-APAZ (natural protein, UniProt Q74DF6 1-587, looked up)
chain: MDVLTDNEFYQHYLQNSQHMMWFLGAGTSRSAGLPTASDIIWDLKHRYYCLHENQDYQKHDINNHAIKSKIQSYMDSKGFPLQWSPEEYSFYFELVFRDDYEAQRKYLLEALASRKVSLNIGHRVLAALLEMNQTKVVFTTNFDDVIETAFSDISGKHLSVYHLEGSYAALSALNTEAFPIYAKIHGDFRYQKIKNLTPDLQTNDREIHKCFLAAAIRFGLVVSGYSGRDENVMTMLRAAIDQNNAFPHGLYWTVPSISKSEPAVQDLITYAQGKGVRAYLVETGTFDEMLSKIWRQVKDKPAAIDAKVRTARVCPVSIPLPGPGKSFPALRTNALPVVTQSIRCGVVTLASPITFSELKERISQKSPKALLTYTEKVLFLGGEPEIRKIFSNDEINSIGQYYIDEIAQSVAASTFLKSFVEEAILTALLREKPILHRVRHRTHYAVIPNASAKDDRFLDLRKAVGFKGDLGYITGNVTNAKELSWAEAVSIRLEERGGKLWIMLKPEIWIKPLDRREEATDFIRSRRRYRFNQCSYQILDAWIKILFGSIGGGGTVNISCFPDAEFKAEFEIGTRTAFSLGVGYGR
For the protein B2, the binding result is listed as “binds”.
